In this assay the target is gbrap_human GABARAP (UniProt O95166).
gbrap_human GABARAP, sequence (O95166 whole entry): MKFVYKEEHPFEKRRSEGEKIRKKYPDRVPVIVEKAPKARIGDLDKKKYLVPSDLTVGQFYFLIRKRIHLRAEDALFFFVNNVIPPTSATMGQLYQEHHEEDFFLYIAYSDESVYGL
In the case of “Pericentriolar material 1 protein (Homo sapiens), Q15154 F1963R”, the “effect of a mutation on the interaction” value is “disrupting interaction strength”.

For the substance “Pericentriolar material 1 protein (Homo sapiens), Q15154 F1963S”, the “effect of a mutation on the interaction” value was “disrupting interaction strength”.

Turning to “Pericentriolar material 1 protein (Homo sapiens), Q15154 F1963T”, the “effect of a mutation on the interaction” value is “disrupting interaction strength”.

With “Pericentriolar material 1 protein (Homo sapiens), Q15154 F1963V”, the “effect of a mutation on the interaction” value is “disrupting interaction strength”.

“Pericentriolar material 1 protein (Homo sapiens), Q15154 F1963W”: the “effect of a mutation on the interaction” value is “with no effect”.

Regarding “Pericentriolar material 1 protein (Homo sapiens), Q15154 F1963Y”, the “effect of a mutation on the interaction” value is “decreasing interaction strength”.

For “Pericentriolar material 1 protein (Homo sapiens), Q15154 G1952A”, the “effect of a mutation on the interaction” value is reported as “with no effect”.

Consider “Pericentriolar material 1 protein (Homo sapiens), Q15154 G1952C”, for which the “effect of a mutation on the interaction” value was “with no effect”.

On to “Pericentriolar material 1 protein (Homo sapiens), Q15154 G1952D”, for which the “effect of a mutation on the interaction” value is “with no effect”.

On to “Pericentriolar material 1 protein (Homo sapiens), Q15154 G1952E”, for which the “effect of a mutation on the interaction” value is “with no effect”.

On to “Pericentriolar material 1 protein (Homo sapiens), Q15154 G1952F”, for which the “effect of a mutation on the interaction” value is listed as “with no effect”.

On to “Pericentriolar material 1 protein (Homo sapiens), Q15154 G1952H”, for which the “effect of a mutation on the interaction” value was “with no effect”.

As to “Pericentriolar material 1 protein (Homo sapiens), Q15154 G1952I”, the “effect of a mutation on the interaction” value is “with no effect”.

Take “Pericentriolar material 1 protein (Homo sapiens), Q15154 G1952K”: the “effect of a mutation on the interaction” value was “with no effect”.

In the case of “Pericentriolar material 1 protein (Homo sapiens), Q15154 G1952L”, the “effect of a mutation on the interaction” value was “with no effect”.

“Pericentriolar material 1 protein (Homo sapiens), Q15154 G1952M”: the “effect of a mutation on the interaction” value is reported as “with no effect”.

For the substance “Pericentriolar material 1 protein (Homo sapiens), Q15154 G1952N”, the “effect of a mutation on the interaction” value was “with no effect”.

With “Pericentriolar material 1 protein (Homo sapiens), Q15154 G1952P”, the “effect of a mutation on the interaction” value was “with no effect”.

As for “Pericentriolar material 1 protein (Homo sapiens), Q15154 G1952Q”, the “effect of a mutation on the interaction” value was “with no effect”.

Take “Pericentriolar material 1 protein (Homo sapiens), Q15154 G1952R”: the “effect of a mutation on the interaction” value is listed as “with no effect”.

Regarding “Pericentriolar material 1 protein (Homo sapiens), Q15154 G1952S”, the “effect of a mutation on the interaction” value is “with no effect”.

Turning to “Pericentriolar material 1 protein (Homo sapiens), Q15154 G1952T”, the “effect of a mutation on the interaction” value is “with no effect”.

For the substance “Pericentriolar material 1 protein (Homo sapiens), Q15154 G1952V”, the “effect of a mutation on the interaction” value is listed as “with no effect”.

Consider “Pericentriolar material 1 protein (Homo sapiens), Q15154 G1952W”, for which the “effect of a mutation on the interaction” value was “with no effect”.

Take “Pericentriolar material 1 protein (Homo sapiens), Q15154 G1952Y”: the “effect of a mutation on the interaction” value was “with no effect”.

Turning to “Pericentriolar material 1 protein (Homo sapiens), Q15154 I1954A”, the “effect of a mutation on the interaction” value is recorded as “with no effect”.

For the substance “Pericentriolar material 1 protein (Homo sapiens), Q15154 I1954C”, the “effect of a mutation on the interaction” value is on record as “with no effect”.

As to “Pericentriolar material 1 protein (Homo sapiens), Q15154 I1954D”, the “effect of a mutation on the interaction” value was “with no effect”.

For the substance “Pericentriolar material 1 protein (Homo sapiens), Q15154 I1954E”, the “effect of a mutation on the interaction” value is “with no effect”.

Consider “Pericentriolar material 1 protein (Homo sapiens), Q15154 I1954F”, for which the “effect of a mutation on the interaction” value was “with no effect”.

As to “Pericentriolar material 1 protein (Homo sapiens), Q15154 I1954G”, the “effect of a mutation on the interaction” value was “with no effect”.

For the substance “Pericentriolar material 1 protein (Homo sapiens), Q15154 I1954H”, the “effect of a mutation on the interaction” value is given as “with no effect”.

As to “Pericentriolar material 1 protein (Homo sapiens), Q15154 I1954K”, the “effect of a mutation on the interaction” value is “with no effect”.

Take “Pericentriolar material 1 protein (Homo sapiens), Q15154 I1954L”: the “effect of a mutation on the interaction” value is reported as “with no effect”.

“Pericentriolar material 1 protein (Homo sapiens), Q15154 I1954M”: the “effect of a mutation on the interaction” value is on record as “with no effect”.

Turning to “Pericentriolar material 1 protein (Homo sapiens), Q15154 I1954N”, the “effect of a mutation on the interaction” value is reported as “with no effect”.

“Pericentriolar material 1 protein (Homo sapiens), Q15154 I1954P”: the “effect of a mutation on the interaction” value was “with no effect”.

As for “Pericentriolar material 1 protein (Homo sapiens), Q15154 I1954Q”, the “effect of a mutation on the interaction” value was “with no effect”.

As to “Pericentriolar material 1 protein (Homo sapiens), Q15154 I1954R”, the “effect of a mutation on the interaction” value is listed as “with no effect”.

Take “Pericentriolar material 1 protein (Homo sapiens), Q15154 I1954S”: the “effect of a mutation on the interaction” value is listed as “with no effect”.

Consider “Pericentriolar material 1 protein (Homo sapiens), Q15154 I1954T”, for which the “effect of a mutation on the interaction” value is given as “with no effect”.

On to “Pericentriolar material 1 protein (Homo sapiens), Q15154 I1954V”, for which the “effect of a mutation on the interaction” value was “decreasing interaction strength”.

In the case of “Pericentriolar material 1 protein (Homo sapiens), Q15154 I1954W”, the “effect of a mutation on the interaction” value is reported as “with no effect”.

Regarding “Pericentriolar material 1 protein (Homo sapiens), Q15154 I1954Y”, the “effect of a mutation on the interaction” value was “with no effect”.

As for “Pericentriolar material 1 protein (Homo sapiens), Q15154 I1975A”, the “effect of a mutation on the interaction” value is on record as “with no effect”.

In the case of “Pericentriolar material 1 protein (Homo sapiens), Q15154 I1975C”, the “effect of a mutation on the interaction” value is given as “with no effect”.

On to “Pericentriolar material 1 protein (Homo sapiens), Q15154 I1975D”, for which the “effect of a mutation on the interaction” value is “with no effect”.

As to “Pericentriolar material 1 protein (Homo sapiens), Q15154 I1975E”, the “effect of a mutation on the interaction” value was “with no effect”.

For “Pericentriolar material 1 protein (Homo sapiens), Q15154 I1975F”, the “effect of a mutation on the interaction” value is listed as “with no effect”.

In the case of “Pericentriolar material 1 protein (Homo sapiens), Q15154 I1975G”, the “effect of a mutation on the interaction” value was “with no effect”.

For “Pericentriolar material 1 protein (Homo sapiens), Q15154 I1975H”, the “effect of a mutation on the interaction” value is on record as “with no effect”.

With “Pericentriolar material 1 protein (Homo sapiens), Q15154 I1975K”, the “effect of a mutation on the interaction” value is on record as “with no effect”.

As for “Pericentriolar material 1 protein (Homo sapiens), Q15154 I1975L”, the “effect of a mutation on the interaction” value is listed as “with no effect”.

Regarding “Pericentriolar material 1 protein (Homo sapiens), Q15154 I1975M”, the “effect of a mutation on the interaction” value was “with no effect”.

With “Pericentriolar material 1 protein (Homo sapiens), Q15154 I1975N”, the “effect of a mutation on the interaction” value was “with no effect”.

For the substance “Pericentriolar material 1 protein (Homo sapiens), Q15154 I1975P”, the “effect of a mutation on the interaction” value is listed as “with no effect”.

With “Pericentriolar material 1 protein (Homo sapiens), Q15154 I1975Q”, the “effect of a mutation on the interaction” value is listed as “with no effect”.

Take “Pericentriolar material 1 protein (Homo sapiens), Q15154 I1975R”: the “effect of a mutation on the interaction” value is recorded as “with no effect”.

On to “Pericentriolar material 1 protein (Homo sapiens), Q15154 I1975S”, for which the “effect of a mutation on the interaction” value is on record as “with no effect”.

For “Pericentriolar material 1 protein (Homo sapiens), Q15154 I1975T”, the “effect of a mutation on the interaction” value is on record as “with no effect”.

Turning to “Pericentriolar material 1 protein (Homo sapiens), Q15154 I1975V”, the “effect of a mutation on the interaction” value is listed as “with no effect”.

As for “Pericentriolar material 1 protein (Homo sapiens), Q15154 I1975W”, the “effect of a mutation on the interaction” value is “with no effect”.

As to “Pericentriolar material 1 protein (Homo sapiens), Q15154 I1975Y”, the “effect of a mutation on the interaction” value was “with no effect”.

Consider “Pericentriolar material 1 protein (Homo sapiens), Q15154 K1957A”, for which the “effect of a mutation on the interaction” value is “with no effect”.

These data come from IntAct's records for PubMed 28712572.
